In US20230279047A1:
pKd: −log10 of the molar value.

Key:
[1] = target: human polyclonal IgG (Gammanorm) (human); assay: DBC column, 6 min residence; ligand 9.7 mg/ml on agarose beads
[2] = target: human polyclonal IgG (Gammanorm) (human); assay: as above; remark: listed apart in the source
[3] = target: human polyclonal IgG (Gammanorm) (human); assay: DBC column, 6 min residence; ligand […] on agarose beads
[4] = target: human polyclonal IgG (Gammanorm) (human); assay: DBC column, 6 min residence; ligand 7.0 mg/ml on agarose beads
[5] = target: IgG1 monoclonal antibody; assay: SPR (Biacore), ligand amine-coupled on CM5 chip, IgG1 mAb as probe
[6] = target: human polyclonal IgG (Gammanorm) (human); assay: DBC column, 6 min residence; ligand 7.2 mg/ml on agarose beads
[7] = target: human polyclonal IgG (Gammanorm) (human); assay: DBC column, 6 min residence; ligand […] on agarose beads; remark: listed apart in the source
[8] = target: human polyclonal IgG (Gammanorm) (human); assay: DBC column, 6 min residence; ligand 10.8 mg/ml on agarose beads

Zvar(N11K,H18K,S33K,D37E,A42R,N43A,L44I,K50R,L51Y)4 (designed binder)
Initial IgG capacity Qb10 [1]: 62.1 mg/mL
Initial IgG capacity Qb10 [2]: 56.3 mg/mL

Zvar(Q9A,N11E,N28A,N43A)4 (designed binder)
Initial IgG capacity Qb10 [3]: 50 mg/mL
Initial IgG capacity Qb10 [4]: 49.1 mg/mL

Zvar(Q9A,N11E,Q40V,A42K,N43A,L44I)1 (designed binder)
pKd [5]: 8.97
koff [5]: 0.000437 s⁻¹
kon [5]: 410000 M⁻¹ s⁻¹

Zvar(Q9A,N11E,Q40V,A42K,N43A,L44I)4 (designed binder)
Initial IgG capacity Qb10 [6]: 49 mg/mL
Initial IgG capacity Qb10 [3]: 56.3 mg/mL
Initial IgG capacity Qb10 [7]: 60.3 mg/mL

Zvar(Q9A,N11K,H18K,D37E,A42R)4 (designed binder)
Initial IgG capacity Qb10 [8]: 56.9 mg/mL
